The values that follow come from patent publication US20190376053A1 (BOARD OF TRUSTEES OF THE UNIVERSITY OF ARKANSAS, published 2019).

The target of test [1] is rat collagen (collagen type I) (rat, UniProt P02454 152-1207; P02466 86-1125). The experiment in a line: cell-based or functional assay.
Test [2] addresses T1, collagen fibril (porcine skin fiber, Nippi, Inc) (porcine).
T1 construct: also called collagen fiber; insoluble collagen fibril
The experiment in a line: collagen fibril binding assay (spin column, SDS-PAGE of the unbound protein, Scatchard plot).

Chain of rat collagen (collagen type I) (P02454 152-1207 limits assumed, chain 1 of 2): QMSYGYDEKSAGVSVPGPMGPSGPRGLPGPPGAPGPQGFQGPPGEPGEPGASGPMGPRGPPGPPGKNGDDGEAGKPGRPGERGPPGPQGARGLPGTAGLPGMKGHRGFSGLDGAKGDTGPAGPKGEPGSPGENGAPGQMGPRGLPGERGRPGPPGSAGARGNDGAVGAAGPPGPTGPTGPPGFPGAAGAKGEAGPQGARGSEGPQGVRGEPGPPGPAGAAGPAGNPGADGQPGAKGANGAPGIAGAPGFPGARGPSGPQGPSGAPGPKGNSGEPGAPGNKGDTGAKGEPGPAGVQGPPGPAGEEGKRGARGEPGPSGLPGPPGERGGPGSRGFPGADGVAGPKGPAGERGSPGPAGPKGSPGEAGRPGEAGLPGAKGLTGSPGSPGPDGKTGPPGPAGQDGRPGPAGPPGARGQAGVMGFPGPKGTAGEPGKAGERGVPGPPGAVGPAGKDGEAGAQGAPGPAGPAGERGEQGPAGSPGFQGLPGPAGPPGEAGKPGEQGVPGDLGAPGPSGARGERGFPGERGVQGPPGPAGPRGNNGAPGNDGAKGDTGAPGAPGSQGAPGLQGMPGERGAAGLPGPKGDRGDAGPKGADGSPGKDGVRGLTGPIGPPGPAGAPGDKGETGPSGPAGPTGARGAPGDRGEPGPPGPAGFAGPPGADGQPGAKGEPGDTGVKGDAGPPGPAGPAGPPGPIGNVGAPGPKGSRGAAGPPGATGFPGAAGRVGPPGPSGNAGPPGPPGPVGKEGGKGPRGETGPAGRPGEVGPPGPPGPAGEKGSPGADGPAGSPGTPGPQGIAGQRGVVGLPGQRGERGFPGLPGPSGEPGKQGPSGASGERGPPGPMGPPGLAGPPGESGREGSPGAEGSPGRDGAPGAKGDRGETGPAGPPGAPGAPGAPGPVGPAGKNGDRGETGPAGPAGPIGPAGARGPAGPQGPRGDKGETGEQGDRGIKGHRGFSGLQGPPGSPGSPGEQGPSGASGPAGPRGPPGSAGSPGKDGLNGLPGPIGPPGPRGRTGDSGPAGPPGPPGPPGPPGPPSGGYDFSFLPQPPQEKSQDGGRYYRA
Chain of rat collagen (collagen type I) (P02466 86-1125 limits assumed, chain 2 of 2): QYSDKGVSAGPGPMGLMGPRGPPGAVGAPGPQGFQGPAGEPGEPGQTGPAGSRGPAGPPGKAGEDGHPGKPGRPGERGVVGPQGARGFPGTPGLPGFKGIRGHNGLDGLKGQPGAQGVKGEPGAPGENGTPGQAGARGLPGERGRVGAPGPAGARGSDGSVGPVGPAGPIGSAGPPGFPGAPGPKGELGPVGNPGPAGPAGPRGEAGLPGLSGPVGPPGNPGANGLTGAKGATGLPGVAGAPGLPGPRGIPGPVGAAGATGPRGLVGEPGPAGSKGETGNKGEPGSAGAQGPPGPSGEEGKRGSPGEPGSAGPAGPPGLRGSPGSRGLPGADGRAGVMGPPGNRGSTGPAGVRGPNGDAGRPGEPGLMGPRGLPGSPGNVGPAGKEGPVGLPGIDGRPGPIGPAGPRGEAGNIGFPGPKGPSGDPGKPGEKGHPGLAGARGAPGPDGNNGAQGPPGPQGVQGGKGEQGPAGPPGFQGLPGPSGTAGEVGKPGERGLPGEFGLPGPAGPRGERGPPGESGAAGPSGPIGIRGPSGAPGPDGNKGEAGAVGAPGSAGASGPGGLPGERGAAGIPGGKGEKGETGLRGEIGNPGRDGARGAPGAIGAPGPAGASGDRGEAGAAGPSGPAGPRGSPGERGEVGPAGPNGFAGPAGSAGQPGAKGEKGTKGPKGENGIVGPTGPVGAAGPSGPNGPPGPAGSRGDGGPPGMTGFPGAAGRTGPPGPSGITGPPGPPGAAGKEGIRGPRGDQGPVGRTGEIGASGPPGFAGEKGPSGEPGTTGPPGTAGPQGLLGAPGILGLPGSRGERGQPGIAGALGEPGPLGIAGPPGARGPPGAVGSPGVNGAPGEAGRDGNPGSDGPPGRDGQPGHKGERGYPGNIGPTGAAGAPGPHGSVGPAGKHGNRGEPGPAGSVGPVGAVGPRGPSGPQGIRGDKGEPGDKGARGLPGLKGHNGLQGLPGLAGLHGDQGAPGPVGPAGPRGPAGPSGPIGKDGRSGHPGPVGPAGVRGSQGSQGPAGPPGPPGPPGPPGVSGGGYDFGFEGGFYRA

B1: tandem collagen-binding domain (s3a-s3b) derived from Clostridium histolyticum class I collagenase ColG (other)
chain: PITKEMEPNDDIKEANGPIVEGVTVKGDLNGSDDADTFYFDVKEDGDVTIELPYSGSSNFTWLVYKEGDDQNHIASGIDKNNSKVGTFKSTKGRHYVFIYKHDSASNISYSLNIKGLGNEKLKEKENNDSSDKATVIPNFNTTMQGSLLGDDSRDYYSFEVKEEGEVNIELDKKDEFGVTWTLHPESNINDRITYGQVDGNKVSNKVKLRPGKYYLLVYKYSGSGNYELRVNK
B1: in test [1], the “collagen fibril thickness against the collagen control, 5:1 ratio” value was 2 % less; the “fibril growth, absorption, higher ratios of tandem CBD” value was determined as 0.005; the “fibril growth, absorption, lower ratios of CBD” value turned out to be 0.0217.

B2: collagen-binding domain s3b derived from Clostridium histolyticum class I collagenase ColG (other)
chain: GNEKLKEKENNDSSDKATVIPNFNTTMQGSLLGDDSRDYYSFEVKEEGEVNIELDKKDEFGVTWTLHPESNINDRITYGQVDGNKVSNKVKLRPGKYYLLVYKYSGSGNYELRVNK
notes: domain: s3b; also called ColGS3b; CBD (s3b)
Consider B2, for which the Kd – broadly, the concentration at which binding is half-saturated – in test [2] is approximately 100 µM.
